Assay results from PMC3925087.

Molecular target: Hen eggwhite lysozyme (HEWL), control (no iodoacetamide), in 50 mM phosphate buffer at pH 12.2 (hen) (UniProt P00698)
Experiment: single-molecule force spectroscopy (AFM pulling); HEWL aggregates formed after 4 days of incubation at pH 12.2, 120 uM in 50 mM phosphate buffer, on a gold coated coverslip; pulling speed 400 nm/s

Work on “Hen eggwhite lysozyme (HEWL), control (no iodoacetamide), in 50 mM phosphate buffer at pH 12.2 (from UniProt P00698 19-147) (enzyme)” yielded an average detachment force of 1000 pN and a mechanical stability (detachment peak force) of 300 to 2600 pN.
